Target: T1, B. burgdorferi RecA (Borrelia burgdorferi B31, UniProt Q59180 1-365)
T1 sequence: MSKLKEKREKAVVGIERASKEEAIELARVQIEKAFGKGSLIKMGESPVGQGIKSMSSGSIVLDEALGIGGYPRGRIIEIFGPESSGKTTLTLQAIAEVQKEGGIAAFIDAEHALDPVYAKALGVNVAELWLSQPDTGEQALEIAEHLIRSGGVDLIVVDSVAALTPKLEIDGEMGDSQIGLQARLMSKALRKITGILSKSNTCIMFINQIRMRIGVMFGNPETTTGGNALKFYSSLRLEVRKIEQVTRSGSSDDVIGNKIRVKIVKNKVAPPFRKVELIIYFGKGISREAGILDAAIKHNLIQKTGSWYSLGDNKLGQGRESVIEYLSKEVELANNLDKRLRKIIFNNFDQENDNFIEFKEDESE
Experiment: EMSA with glutaraldehyde protein-protein crosslinking; 2 mM Mg2+, 2 mM ATP; affinity increased by ATP, discrete shift and well shifts; 25 mM HEPES pH 7.6, 2 mM MgCl2, 1 mM DTT, 50 mM NaCl, +/- 2 mM ATP; 10 nM DNA molecules; 30°C 5 min, then 0.033% glutaraldehyde 5 min at 20°C/room temperature
Settings: protein: recombinant; tags: His tag (pET15b NdeI/BamHI, Ni-NTA; N-terminal implied, removal not mentioned); single strand

B1: OGCB396 95 nt ssDNA (ssDNA)
DNA: TGCAGGCATGCAAGCTTGGCGTAATCATGGTCATAGCTGTTTCCTGTGTGAAATTGTTATCCGCTCACAATTCCACACAACATACGAGCCGGAAG
binding result: binds
